Experimental data: US20240270846A1 (published 2024)
Changes are numbered by the printed parent chain.

B1: CE115HA000 H chain altered form A52aS (antibody, human IgG1, kappa, L234A L235A, N297A, name in Kabat numbering)
heavy: QVQLVESGGGVVQPGRSLRLSCAASGFTFSNAWMHWVRQAPGKGLEWVAQIKSKSNNYATYYAESVKGRFTISRDDSKNSLYLQMNSLKTEDTAVYYCRYVHYGAYYGVDAWGQGTTVTVSSASTKGPSVFPLAPSSKSTSGGTAALGCLVKDYFPEPVTVSWNSGALTSGVHTFPAVLQSSGLYSLSSVVTVPSSSLGTQTYICNVNHKPSNTKVDKKVEPKSCDKTHTCPPCPAPEAAGGPSVFLFPPKPKDTLMISRTPEVTCVVVDVSHEDPEVKFNWYVDGVEVHNAKTKPREEQYASTYRVVSVLTVLHQDWLNGKEYKCKVSNKALPAPIEKTISKAKGQPREPQVYTLPPSRCELTKNQVSLSCAVKGFYPSDIAVEWESNGQPENNYKTTPPVLDSDGSFFLVSKLTVDKSRWQQGNVFSCSVMHEALHNHYTQKSLSLSPDYKDDDDK
chain: EPKSSDKTHTCPPCPAPELLGGPSVFLFPPKPKDTLMISRTPEVTCVVVDVSHEDPEVKFNWYVDGVEVHNAKTKPREEQYNSTYRVVSVLTVLHQDWLNGKEYKCKVSNKALPAPIEKTISKAKGQPREPQVCTLPPSRDELTKNQVSLWCLVKGFYPSDIAVEWESNGQPENNYKTTPPVLDSDGSFFLYSKLTVDKSRWQQGNVFSCSVMHEALHNRYTQKSLSLSP
light: DIVMTQSPLSLPVTPGEPASISCRSSQSLVHSNRNTYLHWYQQKPGQAPRLLIYKVSNRFSGVPDRFSGSGSGTDFTLKISRVEAEDVGVYYCGQGTQVPYTFGQGTKLEIKRTVAAPSVFIFPPSDEQLKSGTASVVCLLNNFYPREAKVQWKVDNALQSGNSQESVTEQDSKDSTYSLSSTLTLSKADYEKHKVYACEVTHQGLSSPVTKSFNRGEC
notes: one-arm antibody
B2: CE115HA000 H chain altered form A56N (antibody, human IgG1, kappa, L234A L235A, N297A, name in Kabat numbering)
heavy: B1 heavy with S53A, A59N
chain: B1 chain
light: B1 light
notes: one-arm antibody
B3: CE115HA000 H chain altered form H35Y (antibody, human IgG1, kappa, L234A L235A, N297A, name in Kabat numbering)
heavy: B1 heavy with H35Y, S53A
chain: B1 chain
light: B1 light
notes: one-arm antibody
B4: CE115HA000 H chain altered form E61P (antibody, human IgG1, kappa, L234A L235A, N297A, name in Kabat numbering)
heavy: B1 heavy with S53A, E64P
chain: B1 chain
light: B1 light
notes: one-arm antibody
B5: CE115HA000 H chain altered form F29V (antibody, human IgG1, kappa, L234A L235A, N297A, name in Kabat numbering)
heavy: B1 heavy with F29V, S53A
chain: B1 chain
light: B1 light
notes: one-arm antibody
B6: CE115HA000 H chain altered form A52aV (antibody, human IgG1, kappa, L234A L235A, N297A, name in Kabat numbering)
heavy: B1 heavy with S53V
chain: B1 chain
light: B1 light
notes: one-arm antibody
B7: CE115HA000 H chain altered form H35S (antibody, human IgG1, kappa, L234A L235A, N297A, name in Kabat numbering)
heavy: B1 heavy with H35S, S53A
chain: B1 chain
light: B1 light
notes: one-arm antibody
B8: CE115HA000 H chain altered form H35D (antibody, human IgG1, kappa, L234A L235A, N297A, name in Kabat numbering)
heavy: B1 heavy with H35D, S53A
chain: B1 chain
light: B1 light
notes: one-arm antibody
B9: CE115HA000 H chain altered form A60E (antibody, human IgG1, kappa, L234A L235A, N297A, name in Kabat numbering)
heavy: B1 heavy with S53A, A63E
chain: B1 chain
light: B1 light
notes: one-arm antibody
B10: CE115HA000 H chain altered form H35E (antibody, human IgG1, kappa, L234A L235A, N297A, name in Kabat numbering)
heavy: B1 heavy with H35E, S53A
chain: B1 chain
light: B1 light
notes: one-arm antibody
B11: CE115HA000 H chain altered form A56Q (antibody, human IgG1, kappa, L234A L235A, N297A, name in Kabat numbering)
heavy: B1 heavy with S53A, A59Q
chain: B1 chain
light: B1 light
notes: one-arm antibody
B12: CE115HA000 H chain altered form H35K (antibody, human IgG1, kappa, L234A L235A, N297A, name in Kabat numbering)
heavy: B1 heavy with H35K, S53A
chain: B1 chain
light: B1 light
notes: one-arm antibody
B13: CE115HA000 H chain altered form H35W (antibody, human IgG1, kappa, L234A L235A, N297A, name in Kabat numbering)
heavy: B1 heavy with H35W, S53A
chain: B1 chain
light: B1 light
notes: one-arm antibody
B14: CE115HA000 H chain altered form A52aY (antibody, human IgG1, kappa, L234A L235A, N297A, name in Kabat numbering)
heavy: B1 heavy with S53Y
chain: B1 chain
light: B1 light
notes: one-arm antibody
B15: CE115HA000 H chain altered form H35M (antibody, human IgG1, kappa, L234A L235A, N297A, name in Kabat numbering)
heavy: B1 heavy with H35M, S53A
chain: B1 chain
light: B1 light
notes: one-arm antibody
B16: CE115HA000 H chain altered form H35V (antibody, human IgG1, kappa, L234A L235A, N297A, name in Kabat numbering)
heavy: B1 heavy with H35V, S53A
chain: B1 chain
light: B1 light
notes: one-arm antibody
B17: CE115HA000 H chain altered form H35L (antibody, human IgG1, kappa, L234A L235A, N297A, name in Kabat numbering)
heavy: B1 heavy with H35L, S53A
chain: B1 chain
light: B1 light
notes: one-arm antibody
B18: CE115HA000 H chain altered form A56K (antibody, human IgG1, kappa, L234A L235A, N297A, name in Kabat numbering)
heavy: B1 heavy with S53A, A59K
chain: B1 chain
light: B1 light
notes: one-arm antibody
B19: CE115HA000 H chain altered form E61A (antibody, human IgG1, kappa, L234A L235A, N297A, name in Kabat numbering)
heavy: B1 heavy with S53A, E64A
chain: B1 chain
light: B1 light
notes: one-arm antibody
B20: CE115HA000 H chain altered form A56Y (antibody, human IgG1, kappa, L234A L235A, N297A, name in Kabat numbering)
heavy: B1 heavy with S53A, A59Y
chain: B1 chain
light: B1 light
notes: one-arm antibody
B21: CE115HA000 H chain altered form E61D (antibody, human IgG1, kappa, L234A L235A, N297A, name in Kabat numbering)
heavy: B1 heavy with S53A, E64D
chain: B1 chain
light: B1 light
notes: one-arm antibody
B22: CE115HA000 H chain altered form H35T (antibody, human IgG1, kappa, L234A L235A, N297A, name in Kabat numbering)
heavy: B1 heavy with H35T, S53A
chain: B1 chain
light: B1 light
notes: one-arm antibody
B23: CE115HA000 H chain altered form A60D (antibody, human IgG1, kappa, L234A L235A, N297A, name in Kabat numbering)
heavy: B1 heavy with S53A, A63D
chain: B1 chain
light: B1 light
notes: one-arm antibody
B24: CE115HA000 H chain altered form H35N (antibody, human IgG1, kappa, L234A L235A, N297A, name in Kabat numbering)
heavy: B1 heavy with H35N, S53A
chain: B1 chain
light: B1 light
notes: one-arm antibody
B25: CE115HA000 H chain altered form H35I (antibody, human IgG1, kappa, L234A L235A, N297A, name in Kabat numbering)
heavy: B1 heavy with H35I, S53A
chain: B1 chain
light: B1 light
notes: one-arm antibody
B26: CE115HA000 H chain altered form A56G (antibody, human IgG1, kappa, L234A L235A, N297A, name in Kabat numbering)
heavy: B1 heavy with S53A, A59G
chain: B1 chain
light: B1 light
notes: one-arm antibody
B27: CE115HA000 H chain altered form A56L (antibody, human IgG1, kappa, L234A L235A, N297A, name in Kabat numbering)
heavy: B1 heavy with S53A, A59L
chain: B1 chain
light: B1 light
notes: one-arm antibody
B28: CE115HA000 H chain altered form H35G (antibody, human IgG1, kappa, L234A L235A, N297A, name in Kabat numbering)
heavy: B1 heavy with H35G, S53A
chain: B1 chain
light: B1 light
notes: one-arm antibody
B29: CE115HA000 H chain altered form H35R (antibody, human IgG1, kappa, L234A L235A, N297A, name in Kabat numbering)
heavy: B1 heavy with H35R, S53A
chain: B1 chain
light: B1 light
notes: one-arm antibody
B30: CE115HA000 H chain altered form H35F (antibody, human IgG1, kappa, L234A L235A, N297A, name in Kabat numbering)
heavy: B1 heavy with H35F, S53A
chain: B1 chain
light: B1 light
notes: one-arm antibody
B31: CE115HA000 H chain altered form A56D (antibody, human IgG1, kappa, L234A L235A, N297A, name in Kabat numbering)
heavy: B1 heavy with S53A, A59D
chain: B1 chain
light: B1 light
notes: one-arm antibody
B32: CE115HA000 H chain altered form H35Q (antibody, human IgG1, kappa, L234A L235A, N297A, name in Kabat numbering)
heavy: B1 heavy with H35Q, S53A
chain: B1 chain
light: B1 light
notes: one-arm antibody
B33: CE115HA000 H chain altered form E61Q (antibody, human IgG1, kappa, L234A L235A, N297A, name in Kabat numbering)
heavy: B1 heavy with S53A, E64Q
chain: B1 chain
light: B1 light
notes: one-arm antibody

target: T1, CD3 epsilon homodimer protein (UniProt P07766 23-126); experiment: SPR Biacore T200, CD3 epsilon homodimer on chip, antibody as analyte;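 note: homodimer amine-coupled to a CM4 sensor chip, run at 25 °C in HBS-EP+ buffer, with kinetic parameters derived in Biacore T200 Evaluation Software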
T1 construct: also called CD3 (CD3 epsilon)
T1 sequence (P07766 23-126): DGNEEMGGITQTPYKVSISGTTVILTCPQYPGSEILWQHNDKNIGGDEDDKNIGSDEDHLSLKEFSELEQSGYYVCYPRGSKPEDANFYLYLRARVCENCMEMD

| KD ratio (KD of CE115HA000 / KD of altered form) | Binder |
| --- | --- |
| 0.82 | B1 |
| 0.84 | B2 |
| 119000 | B3 |
| 0.82 | B4 |
| 2.94 | B5 |
| 0.95 | B6 |
| 2.93 | B7 |
| 69 | B8 |
| 0.88 | B9 |
| 70.3 | B10 |
| 0.74 | B11 |
| 14.4 | B12 |
| 50.4 | B13 |
| 7.71 | B14 |
| 3.98 | B15 |
| 28.1 | B16 |
| 4.8 | B17 |

| KD ratio (KD of CE115HA000 / KD of altered form) | Binder |
| --- | --- |
| 1.32 | B18 |
| 0.94 | B19 |
| 0.63 | B20 |
| 0.9 | B21 |
| 4.4 | B22 |
| 0.94 | B23 |
| 2.88 | B24 |
| 7.23 | B25 |
| 0.59 | B26 |
| 0.77 | B27 |
| 45.8 | B28 |
| 15400 | B29 |
| 53.6 | B30 |
| 0.71 | B31 |
| 4.8 | B32 |
| 0.85 | B33 |
